Reference: ChEMBL document CHEMBL2074568, “Characterization of the transport properties of human multidrug resistance protein 7 (MRP7, ABCC10)” (Mol Pharmacol, 2003)

Substrate: C[C@]12CC[C@@H]3c4ccc(O)cc4CC[C@H]3[C@@H]1CC[C@@H]2O[C@@H]1O[C@H](C(=O)O)[C@@H](O)[C@H](O)[C@H]1O
Experiment: TP_TRANSPORTER: uptake in membrane vesicles from MRP7-expressing HEK293 cells
Format: functional, cell membranes
Conditions: Membrane vesicle

B1: ATP-binding cassette sub-family C member 10 (Homo sapiens), Q5T3U5 (protein)
chain: MERLLAQLCGSSAAWPLPLWEGDTTGHCFTQLVLSALPHALLAVLSACYLGTPRSPDYILPCSPGWRLRLAASFLLSVFPLLDLLPVALPPGAGPGPIGLEVLAGCVAAVAWISHSLALWVLAHSPHGHSRGPLALALVALLPAPALVLTVLWHCQRGTLLPPLLPGPMARLCLLILQLAALLAYALGWAAPGGPREPWAQEPLLPEDQEPEVAEDGESWLSRFSYAWLAPLLARGACGELRQPQDICRLPHRLQPTYLARVFQAHWQEGARLWRALYGAFGRCYLALGLLKLVGTMLGFSGPLLLSLLVGFLEEGQEPLSHGLLYALGLAGGAVLGAVLQNQYGYEVYKVTLQARGAVLNILYCKALQLGPSRPPTGEALNLLGTDSERLLNFAGSFHEAWGLPLQLAITLYLLYQQVGVAFVGGLILALLLVPVNKVIATRIMASNQEMLQHKDARVKLVTELLSGIRVIKFCGWEQALGARVEACRARELGRLRVIKYLDAACVYLWAALPVVISIVIFITYVLMGHQLTATKVFTALALVRMLILPLNNFPWVINGLLEAKVSLDRIQLFLDLPNHNPQAYYSPDPPAEPSTVLELHGALFSWDPVGTSLETFISHLEVKKGMLVGIVGKVGCGKSSLLAAIAGELHRLRGHVAVRGLSKGFGLATQEPWIQFATIRDNILFGKTFDAQLYKEVLEACALNDDLSILPAGDQTEVGEKGVTLSGGQRARIALARAVYQEKELYLLDDPLAAVDADVANHLLHRCILGMLSYTTRLLCTHRTEYLERADAVLLMEAGRLIRAGPPSEILPLVQAVPKAWAENGQESDSATAQSVQNPEKTKEGLEEEQSTSGRLLQEESKKEGAVALHVYQAYWKAVGQGLALAILFSLLLMQATRNAADWWLSHWISQLKAENSSQEAQPSTSPASMGLFSPQLLLFSPGNLYIPVFPLPKAAPNGSSDIRFYLTVYATIAGVNSLCTLLRAVLFAAGTLQAAATLHRRLLHRVLMAPVTFFNATPTGRILNRFSSDVACADDSLPFILNILLANAAGLLGLLAVLGSGLPWLLLLLPPLSIMYYHVQRHYRASSRELRRLGSLTLSPLYSHLADTLAGLSVLRATGATYRFEEENLRLLELNQRCQFATSATMQWLDIRLQLMGAAVVSAIAGIALVQHQQGLANPGLVGLSLSYALSLTGLLSGLVSSFTQTEAMLVSVERLEEYTCDLPQEPQGQPLQLGTGWLTQGGVEFQDVVLAYRPGLPNALDGVTFCVQPGEKLGIVGRTGSGKSSLLLVLFRLLEPSSGRVLLDGVDTSQLELAQLRSQLAIIPQEPFLFSGTVRENLDPQGLHKDRALWQALKQCHLSEVITSMGGLDGELGEGGRSLSLGQRQLLCLARALLTDAKILCIDEATASVDQKTDQLLQQTICKRFANKTVLTIAHRLNTILNSDRVLVLQAGRVVELDSPATLRNQPHSLFQQLLQSSQQGVPASLGGP
Protein B1 has a Km of 57.8 µM.
